Results on 2 molecules are retold here after paper PMC8217473 (2021).

Assay [1] deals with T1, RBD-Fc (receptor binding domain of SARS-CoV-2 spike fused to Fc) (SARS-CoV-2, UniProt P0DTC2). The assay is described as follows: SPR. In general terms: Surface plasmon resonance follows binding to a sensor surface in real time, without labels.
The target of assay [2] is T1, RBD-Fc (receptor binding domain of …). In words: SPR. The source holds these as a separate data set.

Like-named read-outs stand apart in the source and are kept apart here.

B1: 3N39 mutant sACE2-His (domain or fragment)
chain: QSTIEEQVETFLDNFNHKAEDLFYQSSLASWNYNTNITEENVQNMNIAGDKWSAFLKEQSTFAQMYPLQEIQHLTVKLQLQALQQNGSSVLSEDKSKRLNTILNTMSTIYSTGKVCNPDNPQECLLLEPGLNEIMANSLDYNERLWAWESWRSEVGKQLRPLYEEYVVLKNEMARANHYEDYGDYWRGDYEVNGVDGYDYSRGQLIEDVEHTFEEIKPLYEHLHAYVRAKLMNAYPSYISPIGCLPAHLLGDMWGRFWTNLYSLTVPFGQKPNIDVTDAMVDQAWDAQRIFKEAEKFFVSVGLPNMTQGFWENSMLTDPGNVQKAVCHPTAWDLGKGDFRILMCTKVTMDDFLTAHHEMGHIQYDMAYAAQPFLLRNGANEGFHEAVGEIMSLSAATPKHLKSIGLLSPDFQEDNETEINFLLKQALTIVGTLPFTYMLEKWRWMVFKGEIPKDQWMKKWWEMKREIVGVVEPVPHDETYCDPASLFHVSNDYSFIRYYTRTLYQFQFQEALCQAAKHEGPLHKCDISNSTEAGQKLFNMLRLGKSEPWTLALENVVGAKNMNVRPLLNYFEPLFTWLKDQNKNSFVGWSTDWSPYAD
In the case of B1, the results for the Kd in assay [1] and in assay [2] were 0.29 nM and 0.32 nM, respectively.

B2: 3N39v2 mutant sACE2-His (domain or fragment)
chain: QSTIEEQVKTFLDNFNHKAEDLFYQSSLASWNYNTNITEENVQNMNNAGDKWSAFLKEQSTFAQMYPLQEIQNLTVKLQLQALQQNGSSVLSEDKSKRLNTILNTMSTIYSTGKVCNPDNPQECLLLEPGLNEIMANSLDYNERLWAWESWRSEVGKQLRPLYEEYVVLKNEMARANHYEDYGDYWRGDYEVNGVDGYDYSRGQLIEDVEHTFEEIKPLYEHLHAYVRAKLMNAYPSYISPIGCLPAHLLGDMWGRFWTNLYSLTVPFGQKPNIDVTDAMVDQAWDAQRIFKEAEKFFVSVGLPNMTQGFWENSMLTDPGNVQKAVCHPTAWDLGKGDFRILMCTKVTMDDFLTAHHEMGHIQYDMAYAAQPFLLRNGANEGFHEAVGEIMSLSAATPKHLKSIGLLSPDFQEDNETEINFLLKQALTIVGTLPFTYMLEKWRWMVFKGEIPKDQWMKKWWEMKREIVGVVEPVPHDETYCDPASLFHVSNDYSFIRYYTRTLYQFQFQEALCQAAKHEGPLHKCDISNSTEAGQKLFNMLRLGKSEPWTLALENVVGAKNMNVRPLLNYFEPLFTWLKDQNKNSFVGWSTDWSPYAD
B2 came in with a dissociation constant (Kd) in assay [2] of 0.54 nM.

The Kd is the constant that tells how readily two partners part at equilibrium. The low end stands for higher affinity, the high end for lower affinity.
